Assay results from PMC6467934, “Cell-Free and Yeast-Based Production of the Malarial Lactate Transporter, PfFNT, Delivers Comparable Yield and Protein Quality” (Frontiers in Pharmacology, 2019).

Target: the molecule itself
Assay: negative-stain transmission electron microscopy with class sums; purified, detergent-solubilized PfFNT (yeast-produced in DM, cell-free in Brij 78); uranyl acetate stain; reference-free alignment without any symmetry imposed

| Protein | stoichiometry N |
| --- | --- |
| Plasmodium falciparum lactate transporter PfFNT, produced in Pichia pastoris yeast (natural protein, UniProt O77389 1-309, looked up, PfFNT, lactate transporter (formate-nitrite transporter family) of Plasmodium falciparum; monomer printed as 30 kDa, pentamer 150 kDa; Homopentamer; also called cell-based PfFNT; yeast-produced PfFNT; source: P. pastoris (PichiaPink), fermenter culture; membranes solubilized with LDAO, purified (Ni-NTA, size exclusion) in DM; not shown: His10, C-terminal, kept) MPPNNSKYVLDPVSIKSVCGGEESYIRCVEYGKKKAHYSNLNLLAKAILAGMFVGLCAHASGIAGGLFYYHKLREIVGASMSVFVYGFTFPIAFMCIICTGSDLFTGNTLAVTMALYEKKVKLLDYLRVMTISLFGNYVGAVSFAFFVSYLSGAFTNVHAVEKNHFFQFLNDIAEKKVHHTFVECVSLAVGCNIFVCLAVYFVLTLKDGAGYVFSVFFAVYAFAIAGYEHIIANIYTLNIALMVNTKITVYQAYIKNLLPTLLGNYIAGAIVLGLPLYFIYKEHYYNFERSKRDNNDAQMKSLSIELRN | 5 |
| Plasmodium falciparum lactate transporter PfFNT, produced cell-free in an E. coli S30 extract (natural protein, UniProt O77389 1-309, looked up, PfFNT, lactate transporter (formate-nitrite transporter family) of Plasmodium falciparum; codon-optimized open reading frame in pIVEX2.3; monomer printed as 30 kDa, pentamer 150 kDa; Homopentamer; A factor Xa digestion site lies between PfFNT and the C-terminal His10-tag; no cleavage is reported; also called cell-free PfFNT; cell-free produced PfFNT; source: E. coli S30 extract cell-free system …) MPPNNSKYVLDPVSIKSVCGGEESYIRCVEYGKKKAHYSNLNLLAKAILAGMFVGLCAHASGIAGGLFYYHKLREIVGASMSVFVYGFTFPIAFMCIICTGSDLFTGNTLAVTMALYEKKVKLLDYLRVMTISLFGNYVGAVSFAFFVSYLSGAFTNVHAVEKNHFFQFLNDIAEKKVHHTFVECVSLAVGCNIFVCLAVYFVLTLKDGAGYVFSVFFAVYAFAIAGYEHIIANIYTLNIALMVNTKITVYQAYIKNLLPTLLGNYIAGAIVLGLPLYFIYKEHYYNFERSKRDNNDAQMKSLSIELRN | 5 |
